# Test results taken from patent publication US20230277632A1, “MODIFIED PlySs2 LYSINS AND ANTIBIOTIC COMBINATIONS FOR USE AGAINST GRAM-POSITIVE BACTERIA” (ContraFect Corporation, priority 2020, published 2023).
# B1: pp296: modified PlySs2 lysin, SEQ ID NO: 6: L92W, V104S, V128T, Y137S, Y164K, N184D, S198Q (protein)
# chain: MTTVNEALNNVRAQVGSGVSVGNGECYALASWYERMISPDATVGLGAGVGWVSGAIGDTISAKNIGSSYNWQANGWTVSTSGPFKAGQIVTWGATPGNPYGHVSIVEAVDGDRLTILEQNYGGKRYPTRNYYSAASSRQQVVHYITPPGTVAQSAPNLAGSRSKRETGTMTVTVDALNVRRAPDTSGEIVAVYKRGEQFDYDTAIIDVNGYAWVSYIGGSGKRNYVATGATKDGKRFGNAWGTFK
# Test system: MSSA strains
# Assay: Checkerboard assay: pp296 or CF-301 with oxacillin
# Assay type: cell-based, Staphylococcus aureus
# Conditions: for FIC: pp296 + oxacillin; for ΣFICmin: with oxacillin
# From the text: In some embodiments, the present modified lysin polypeptides reduce the minimum inhibitory concentration (MIC) of an antibiotic. Any known method to assess MIC may be used. In some embodiments, a checkerboard assay is used to determine the effect of a lysin on antibiotic concentration. The checkerboard assay is based on a modification of the CLSI method for MIC determination by broth microdilution (See Clinical and Laboratory Standards Institute (CLSI), CLSI. 2015. Methods for Dilution Antimicrobial Susceptibility Tests for Bacteria That Grow Aerobically; Approved Standard-10th Edition. Clinical and Laboratory Standards Institute, Wayne, Pa., which is herein incorporated by reference in its entirety and Ceri et al. 1999. J. Clin. Microbiol. 37: 1771-1776, which is also herein incorporated by reference in its entirety).
# Checkerboards are constructed by first preparing columns of e.g., a 96-well polypropylene microtiter plate, wherein each well has the same amount of antibiotic diluted 2-fold along the horizontal axis. […] The lysin and antibiotic dilutions are then combined, so that each column has a constant amount of antibiotic and doubling dilutions of lysin, while each row has a constant amount of lysin and doubling dilutions of antibiotic. Each well thus has a unique combination of lysin and antibiotic. Bacteria are added to the drug combinations at a given concentration. […] Summation fractional inhibitory concentrations (ΣFICs) are calculated for each drug and the minimum ΣFIC value (ΣFICmin) is used to determine the effect of the lysin/antibiotic combination.
# The ability of CF-301 or a modified lysin polypeptide pp296 to synergize with oxacillin was assessed using a checkerboard analysis. For the checkerboard assay, a total of 50 μl of Mueller-Hinton broth is distributed into each well of microdilution plates. Then, a first antibiotic of a combination is serially diluted along the ordinate, while a second drug is diluted along the abscissa. An inoculum equal to a 0.5 McFarland turbidity standard is prepared from each bacterial isolate in Mueller-Hinton broth. Each microtiter well is then inoculated with 100 μl of a bacterial inoculum of 5×10^5 CFU/ml, and the plates are incubated at 37° C. for 18 h under aerobic conditions. The resulting checkerboard contains each combination of two antibiotics, with wells that contain the highest concentration of each antibiotic at opposite corners. […] To quantify the interactions between the antibiotics being tested, the FIC index (the combination of antibiotics that produced the greatest change from the individual antibiotic's MIC) value is calculated for each strain and antibiotic combination as follows:
# (A/MICA)+(B/MICB)=FICA+FICB=FIC index,
# where A and B are the MIC of each agent in combination in a single well, and MICA and MICB are the MIC of each drug when used individually. The combination is considered strongly synergistic when the FIC index is ≤0.5 and synergistic when the FIC index is >0.5-<1.
molecule,measurement,setting,value
B1,Single agent MICs,MSSA ATCC 29213,1 µg/mL
same,Single agent MICs,MSSA JMI-6625,1 µg/mL
same,Single agent MICs,MSSA JMI-6885,1 µg/mL
same,Single agent MICs,MSSA JMI-6886,1 µg/mL
same,Single agent MICs,MSSA JMI-7054,1 µg/mL
same,Single agent MICs,MSSA JMI-7160,1 µg/mL
same,Single agent MICs,MSSA JMI-38739,1 µg/mL
same,Single agent MICs,MSSA JMI-38986,1 µg/mL
same,Single agent MICs,MSSA JMI-40671,1 µg/mL
same,Single agent MICs,MSSA JMI-46142,1 µg/mL
same,FIC,MSSA ATCC 29213,0.25
same,FIC,MSSA JMI-6625,0.0625
same,FIC,MSSA JMI-6885,0.25
same,FIC,MSSA JMI-6886,0.25
same,FIC,MSSA JMI-7054,0.25
same,FIC,MSSA JMI-7160,0.25
same,FIC,MSSA JMI-38739,0.25
same,FIC,MSSA JMI-38986,0.125
same,FIC,MSSA JMI-40671,0.25
same,FIC,MSSA JMI-46142,0.25
same,ΣFICmin,MSSA ATCC 29213,0.5
same,ΣFICmin,MSSA JMI-6625,0.3125
same,ΣFICmin,MSSA JMI-6885,0.375
same,ΣFICmin,MSSA JMI-6886,0.5
same,ΣFICmin,MSSA JMI-7054,0.5
same,ΣFICmin,MSSA JMI-7160,0.5
same,ΣFICmin,MSSA JMI-38739,0.5
same,ΣFICmin,MSSA JMI-38986,0.375
same,ΣFICmin,MSSA JMI-40671,0.375
same,ΣFICmin,MSSA JMI-46142,0.5
